B1: Cypate-Cyclo(Cys-Arg-Gly-Asp-Cys)-NH2 (peptide)
peptide: CRGDC
HELM: PEPTIDE1{[CC1(C)C(/C=C/C=C/C=C/C=C2/N(CCC(=O)[*:2])c3ccc4ccccc4c3C2(C)C)=[N+](CCC(=O)O)c2ccc3ccccc3c21].C.R.G.D.C.[am]}$PEPTIDE1,PEPTIDE1,2:R3-6:R3$$$V2.0
SMILES: CC1(C)C(/C=C/C=C/C=C/C=C2/N(CCC(=O)N[C@H]3CSSC[C@@H](C(N)=O)NC(=O)[C@H](CC(=O)O)NC(=O)CNC(=O)[C@H](CCCNC(=N)N)NC3=O)c3ccc4ccccc4c3C2(C)C)=[N+](CCC(=O)O)c2ccc3ccccc3c21
notes: also called Cypate-cyclo(CRGDC)-NH2
B2: DOTA-Arg-Gly-Asp-Ser-Pro-Lys(Cypate)-NH2 (peptide)
peptide: {DOTA}-RGDSPK(Cypate)-NH2
SMILES: CC1(C)C(/C=C/C=C/C=C/C=C2/N(CCC(=O)NCCCC[C@H](NC(=O)[C@@H]3CCCN3C(=O)[C@H](CO)NC(=O)[C@H](CC(=O)O)NC(=O)CNC(=O)[C@H](CCCNC(=N)N)NC(=O)CN3CCN(CC(=O)O)CCN(CC(=O)O)CCN(CC(=O)O)CC3)C(N)=O)c3ccc4ccccc4c3C2(C)C)=[N+](CCC(=O)O)c2ccc3ccccc3c21
B3: H-B-Ala-Asp-Cys-Arg-Gly-Asp-Cys(Et)-Phe-Val-OH (peptide)
peptide: H-[βAla]DCRGDC(Et)FV-OH
SMILES: CCSC[C@H](NC(=O)[C@H](CC(=O)O)NC(=O)CNC(=O)[C@H](CCCNC(=N)N)NC(=O)[C@H](CS)NC(=O)[C@H](CC(=O)O)NC(=O)CCN)C(=O)N[C@@H](Cc1ccccc1)C(=O)N[C@H](C(=O)O)C(C)C
B4: DTPA-DPhe-Cyclo(Cys-Tyr-DTrp-Lys-Thr-Cys)-Thr-Val-Arg-Gly-Asp-DPhe-NH2 (peptide)
peptide: XCYXKTCTVRGDX
HELM: PEPTIDE1{[O=C(O)CN(CCN(CC(=O)O)CC(=O)O)CCN(CC(=O)O)CC(=O)[*:2]].[dF].C.Y.[dW].K.T.C.T.V.R.G.D.[dF].[am]}$PEPTIDE1,PEPTIDE1,3:R3-8:R3$$$V2.0
SMILES: CC(C)[C@H](NC(=O)[C@@H](NC(=O)[C@@H]1CSSC[C@H](NC(=O)[C@@H](Cc2ccccc2)NC(=O)CN(CCN(CCN(CC(=O)O)CC(=O)O)CC(=O)O)CC(=O)O)C(=O)N[C@@H](Cc2ccc(O)cc2)C(=O)N[C@H](Cc2c[nH]c3ccccc23)C(=O)N[C@@H](CCCCN)C(=O)N[C@@H]([C@@H](C)O)C(=O)N1)[C@@H](C)O)C(=O)N[C@@H](CCCNC(=N)N)C(=O)NCC(=O)N[C@@H](CC(=O)O)C(=O)N[C@H](Cc1ccccc1)C(N)=O
B5: DTPA-Val-Arg-Gly-Asp-DPhe-Cyclo(Cys-Tyr-DTrp-Lys-Thr-Cys)-Thr-NH2 (peptide)
peptide: VRGDXCYXKTCT
HELM: PEPTIDE1{[O=C(O)CN(CCN(CC(=O)O)CC(=O)O)CCN(CC(=O)O)CC(=O)[*:2]].V.R.G.D.[dF].C.Y.[dW].K.T.C.T.[am]}$PEPTIDE1,PEPTIDE1,7:R3-12:R3$$$V2.0
SMILES: CC(C)[C@H](NC(=O)CN(CCN(CCN(CC(=O)O)CC(=O)O)CC(=O)O)CC(=O)O)C(=O)N[C@@H](CCCNC(=N)N)C(=O)NCC(=O)N[C@@H](CC(=O)O)C(=O)N[C@H](Cc1ccccc1)C(=O)N[C@H]1CSSC[C@@H](C(=O)N[C@H](C(N)=O)[C@@H](C)O)NC(=O)[C@H]([C@@H](C)O)NC(=O)[C@H](CCCCN)NC(=O)[C@@H](Cc2c[nH]c3ccccc23)NC(=O)[C@H](Cc2ccc(O)cc2)NC1=O
B6: Cyclo(DPhe-Val-Lys-Arg-Gly-Asp)-OH (peptide)
peptide: XVKRGD
HELM: PEPTIDE1{[dF].V.K.R.G.D}$PEPTIDE1,PEPTIDE1,1:R1-6:R2$$$V2.0
SMILES: CC(C)[C@@H]1NC(=O)[C@@H](Cc2ccccc2)NC(=O)[C@H](CC(=O)O)NC(=O)CNC(=O)[C@H](CCCNC(=N)N)NC(=O)[C@H](CCCCN)NC1=O
B7: Cyclo(Arg-Gly-Asp-DPhe-Asp)-EAhx-Lys-OH (peptide)
peptide: RGD[dF]D[Ahx]K-OH
modifications: lactam N-5; also: cyclo Arg1-Asp5: which Asp5 carboxyl (side chain or α) closes ring not given here
B8: Cypate-[Cyclo(Cys-Arg-Gly-Asp-Ser-Cys)-NH2]1-(D-Glucosamine) (peptide)
peptide: CRGDSC-NH2
modifications: disulfide 1-6; not fully specified (N-terminus); printed as Cypate-[Cyclo(Cys-Arg-Gly-Asp-Ser-Cys)-NH2]1-(D-Glucosamine); also: D-glucosamine attached to cypate
B9: H-DPhe-Cyclo(Cys-Tyr-DTrp-Lys-Thr-Cys)-Thr-Val-Arg-Gly-Asp-DPhe-NH2 (peptide)
peptide: XCYXKTCTVRGDX
HELM: PEPTIDE1{[dF].C.Y.[dW].K.T.C.T.V.R.G.D.[dF].[am]}$PEPTIDE1,PEPTIDE1,2:R3-7:R3$$$V2.0
SMILES: CC(C)[C@H](NC(=O)[C@@H](NC(=O)[C@@H]1CSSC[C@H](NC(=O)[C@H](N)Cc2ccccc2)C(=O)N[C@@H](Cc2ccc(O)cc2)C(=O)N[C@H](Cc2c[nH]c3ccccc23)C(=O)N[C@@H](CCCCN)C(=O)N[C@@H]([C@@H](C)O)C(=O)N1)[C@@H](C)O)C(=O)N[C@@H](CCCNC(=N)N)C(=O)NCC(=O)N[C@@H](CC(=O)O)C(=O)N[C@H](Cc1ccccc1)C(N)=O
B10: H-DPhe-Cyclo(Cys-Tyr-DTrp-Lys-Thr-Cys)-Thr-Val-Arg-Gly-Asp-NH2 (peptide)
peptide: XCYXKTCTVRGD
HELM: PEPTIDE1{[dF].C.Y.[dW].K.T.C.T.V.R.G.D.[am]}$PEPTIDE1,PEPTIDE1,2:R3-7:R3$$$V2.0
SMILES: CC(C)[C@H](NC(=O)[C@@H](NC(=O)[C@@H]1CSSC[C@H](NC(=O)[C@H](N)Cc2ccccc2)C(=O)N[C@@H](Cc2ccc(O)cc2)C(=O)N[C@H](Cc2c[nH]c3ccccc23)C(=O)N[C@@H](CCCCN)C(=O)N[C@@H]([C@@H](C)O)C(=O)N1)[C@@H](C)O)C(=O)N[C@@H](CCCNC(=N)N)C(=O)NCC(=O)N[C@@H](CC(=O)O)C(N)=O
B11: DTPA-His-Asp-Cys(Et)-Arg-Gly-Asp-Cys(Et)-Phe-Lys-OH (peptide)
peptide: {DTPA}-HDC(Et)RGDC(Et)FK-OH
SMILES: CCSC[C@H](NC(=O)[C@H](CC(=O)O)NC(=O)CNC(=O)[C@H](CCCNC(=N)N)NC(=O)[C@H](CSCC)NC(=O)[C@H](CC(=O)O)NC(=O)[C@H](Cc1c[nH]cn1)NC(=O)CN(CCN(CCN(CC(=O)O)CC(=O)O)CC(=O)O)CC(=O)O)C(=O)N[C@@H](Cc1ccccc1)C(=O)N[C@@H](CCCCN)C(=O)O
B12: Cyclo(Arg-Gly-Asp-DPhe-Asp)-Lys-NH2 (peptide)
peptide: RGD[dF]DK-NH2
modifications: lactam N-5; also: cyclo Arg1-Asp5: which Asp5 carboxyl (side chain or α) closes ring not given here
B13: H-Val-Arg-Gly-Asp-DPhe-Cyclo(Cys-Tyr-DTrp-Lys-Thr-Cys)-Thr-NH2 (peptide)
peptide: VRGDXCYXKTCT
HELM: PEPTIDE1{V.R.G.D.[dF].C.Y.[dW].K.T.C.T.[am]}$PEPTIDE1,PEPTIDE1,6:R3-11:R3$$$V2.0
SMILES: CC(C)[C@H](N)C(=O)N[C@@H](CCCNC(=N)N)C(=O)NCC(=O)N[C@@H](CC(=O)O)C(=O)N[C@H](Cc1ccccc1)C(=O)N[C@H]1CSSC[C@@H](C(=O)N[C@H](C(N)=O)[C@@H](C)O)NC(=O)[C@H]([C@@H](C)O)NC(=O)[C@H](CCCCN)NC(=O)[C@@H](Cc2c[nH]c3ccccc23)NC(=O)[C@H](Cc2ccc(O)cc2)NC1=O

Bridges are numbered along the chain shown (N, C = ends). Primed or numbered codes have the meaning given here. Where no end group is shown, it is not given here. [ ]: non-standard residue; d: D form. The star is where a group is joined. Cypate = CC1(C)C(/C=C/C=C/C=C/C=C2/N(CCC(=O)*)c3ccc4ccccc4c3C2(C)C)=[N+](CCC(=O)O)c2ccc3ccccc3c21; DOTA = O=C(O)CN1CCN(CC(=O)O)CCN(CC(=O)*)CCN(CC(=O)O)CC1; DTPA = O=C(O)CN(CCN(CC(=O)O)CC(=O)O)CCN(CC(=O)O)CC(=O)*; Cypate′ = NIR carbocyanine dye; Ahx = NCCCCCC(=O)O; βAla = NCCC(=O)O

Usually IC50 stands for the concentration that gives 50% inhibition. Low values mean inhibition by little substance, high ones a need for much substance.

T1 sequence (P06756 31-1048, form in doubt, chain 1 of 2): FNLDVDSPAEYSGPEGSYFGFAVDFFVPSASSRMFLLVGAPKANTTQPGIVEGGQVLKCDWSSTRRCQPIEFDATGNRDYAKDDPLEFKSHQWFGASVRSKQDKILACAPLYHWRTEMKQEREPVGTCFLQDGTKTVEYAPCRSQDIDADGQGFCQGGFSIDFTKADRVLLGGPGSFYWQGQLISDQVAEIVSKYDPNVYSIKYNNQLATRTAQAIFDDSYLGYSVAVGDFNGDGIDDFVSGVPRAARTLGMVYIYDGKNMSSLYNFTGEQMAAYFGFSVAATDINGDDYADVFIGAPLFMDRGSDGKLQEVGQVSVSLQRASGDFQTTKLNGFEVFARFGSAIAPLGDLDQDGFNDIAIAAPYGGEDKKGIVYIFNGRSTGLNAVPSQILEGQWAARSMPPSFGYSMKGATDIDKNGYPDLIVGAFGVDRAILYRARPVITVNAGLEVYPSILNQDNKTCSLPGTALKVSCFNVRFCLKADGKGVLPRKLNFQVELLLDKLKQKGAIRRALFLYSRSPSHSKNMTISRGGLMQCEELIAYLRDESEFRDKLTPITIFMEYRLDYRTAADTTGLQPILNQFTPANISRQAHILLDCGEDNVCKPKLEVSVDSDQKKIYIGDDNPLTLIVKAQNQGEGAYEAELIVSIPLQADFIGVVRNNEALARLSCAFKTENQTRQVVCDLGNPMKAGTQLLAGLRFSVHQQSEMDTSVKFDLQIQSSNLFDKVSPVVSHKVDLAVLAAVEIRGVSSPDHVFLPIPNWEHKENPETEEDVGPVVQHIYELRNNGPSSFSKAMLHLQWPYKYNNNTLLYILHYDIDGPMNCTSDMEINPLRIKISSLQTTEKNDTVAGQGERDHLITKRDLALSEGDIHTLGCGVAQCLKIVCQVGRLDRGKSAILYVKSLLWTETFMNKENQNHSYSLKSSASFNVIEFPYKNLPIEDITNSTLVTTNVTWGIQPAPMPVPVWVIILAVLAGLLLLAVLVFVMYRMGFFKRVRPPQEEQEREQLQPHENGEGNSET
T1 sequence (P05106 27-788, form in doubt, chain 2 of 2): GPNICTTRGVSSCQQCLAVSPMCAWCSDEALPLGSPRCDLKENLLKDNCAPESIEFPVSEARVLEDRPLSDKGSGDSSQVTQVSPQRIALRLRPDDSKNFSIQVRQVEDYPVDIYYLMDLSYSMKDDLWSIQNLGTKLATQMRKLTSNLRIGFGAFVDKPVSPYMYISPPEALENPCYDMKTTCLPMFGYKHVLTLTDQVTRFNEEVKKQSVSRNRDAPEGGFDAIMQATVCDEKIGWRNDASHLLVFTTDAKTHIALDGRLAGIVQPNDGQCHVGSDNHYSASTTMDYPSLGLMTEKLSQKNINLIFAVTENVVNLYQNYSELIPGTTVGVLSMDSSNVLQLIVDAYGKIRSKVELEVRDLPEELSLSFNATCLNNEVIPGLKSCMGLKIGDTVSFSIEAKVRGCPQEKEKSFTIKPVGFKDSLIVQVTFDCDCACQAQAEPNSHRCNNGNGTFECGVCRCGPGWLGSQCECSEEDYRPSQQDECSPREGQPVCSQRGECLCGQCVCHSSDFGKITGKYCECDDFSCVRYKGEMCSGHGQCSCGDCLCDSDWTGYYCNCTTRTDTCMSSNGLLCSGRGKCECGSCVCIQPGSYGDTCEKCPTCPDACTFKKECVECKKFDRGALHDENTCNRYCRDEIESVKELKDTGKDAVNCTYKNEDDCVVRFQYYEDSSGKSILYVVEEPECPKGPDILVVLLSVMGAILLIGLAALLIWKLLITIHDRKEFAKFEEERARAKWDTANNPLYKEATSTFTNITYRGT

The first experiment has as its target T1, purified human αvβ3 integrin protein (human, UniProt P06756 31-1048; P05106 27-788).
T1 construct: Bought heterodimer; also called ABI; purified αvβ3 integrin
Description: competition with 125I-echistatin on purified human αvβ3 integrin, filter plate.
Description: (§1) The binding affinities were measured based on the competitive binding between purified αᵥβ₃ integrin (ABI) and peptide ligands.
(§2) Receptor binding assays were performed by using purified human αᵥβ₃ integrin protein from Chemicon International, Inc. (Temecula, Calif.). Assays were carried out using the Millipore Duropore membrane 96-well plates and the Millipore MultiScreen system (Bedford, Mass.). […] The concentration range of ligand was between 0.01 μM and 100 μM. The mixtures were incubated for 2 h at room temperature, the ABI was then filtered by centrifugation at 1500 g and washed three times with 0.20 mL of ice-cold binding buffer. The filters containing radioactivity bound ABI were removed using a punch apparatus and counted using a Packard Cobra II Auto-gamma counter (Meriden, Conn.). […] The 50% inhibitory concentrations (IC₅₀) were calculated by nonlinear regression analysis by use of the GraphPad Prism 4 computer fitting program (GraphPad Software, Inc., San Diego, Calif.).
Turning to B1, the IC50 came out at 4.6 µM.

In another experiment the target is T1, purified human αvβ3 integrin protein. The experiment is described as above. The source holds these as a separate data set.
Description: as §1, §2
In turn, H-HDRGDCFK-OH [H-His-Asp-Arg-Gly-Asp-Cys-Phe-Lys-OH] displayed an IC50 of 0.411 µM.

On to {Cypate′}-[dF]CY[dW]KTCTVRGD-NH2 (disulfide 2-7) [Cypate-DPhe-Cyclo(Cys-Tyr-DTrp-Lys-Thr-Cys)-Thr-Val-Arg-Gly-Asp-NH2], for which the IC50 came to 4.42 µM.

In turn, {Cypate′}-[βAla]RGD[Ahx]RGD[Ahx]RGDSPK-OH [Cypate-BAla-Arg-Gly-Asp-EAhx-Arg-Gly-Asp-EAhx-Arg-Gly-Asp-Ser-Pro-Lys-OH] gave an IC50 of 0.0656 µM.

As for B2, the IC50 stood at 0.722 µM.

B3 had an IC50 of 0.329 µM.

Regarding {Cypate(3)}-GRDSPK-OH [Cypate(3)-Gly-Arg-Asp-Ser-Pro-Lys-OH], the half-inhibitory concentration (IC50) turned out to be 2670 µM.

Regarding {DOTA}-RGDSPK-OH [DOTA-Arg-Gly-Asp-Ser-Pro-Lys-OH], the IC50 was 0.694 µM.

B4 gave an IC50 of 0.945 µM.

B5 displayed an IC50 of 0.584 µM.

B6 displayed an IC50 of 1.89 µM.

B7 displayed a half-inhibitory concentration (IC50) of 1.94 µM.

{DTPA}-GRDSPK-OH [DTPA-Gly-Arg-Asp-Ser-Pro-Lys-OH]: the IC50 is 0.849 µM.

Turning to {Cypate′}-[βAla]CRGDC[dF]V-NH2 (disulfide 2-6) [Cypate-BAla-Cyclo(Cys-Arg-Gly-Asp-Cys)-DPhe-Val-NH2], the half-maximal inhibitory concentration (IC50) is 0.000977 µM.

On to B8, for which the IC50 was found to be 0.275 µM.

In the case of {DTPA}-GRGDSPK-OH [DTPA-Gly-Arg-Gly-Asp-Ser-Pro-Lys-OH], the IC50 is 0.353 µM.

Molecule B9 showed an IC50 of 0.357 µM.

Molecule B10 showed an IC50 of 0.722 µM.

Molecule {DOTA}-GRDSPK-OH (also called DOTA-GRD) [DOTA-Gly-Arg-Asp-Ser-Pro-Lys-OH] displayed an IC50 of 350 µM.

Regarding B11, the IC50 was found to be 0.712 µM.

Molecule {Cypate′}-VRGD[dF]CY[dW]KTCT-OH (disulfide 6-11) [Cypate-Val-Arg-Gly-Asp-DPhe-Cyclo(Cys-Tyr-DTrp-Lys-Thr-Cys)-Thr-OH] gave an IC50 of 325 µM.

For {DTPA}-[dF]CY[dW]KTCTVRGD-NH2 (disulfide 2-7) [DTPA-DPhe-Cyclo(Cys-Tyr-DTrp-Lys-Thr-Cys)-Thr-Val-Arg-Gly-Asp-NH2], the IC50 is 1.11 µM.

As for Cypate-RGDS-NH2 (also: cypate also carries one D-glucosamine) [Cypate(Arg-Gly-Asp-Ser-NH2)1-(D-Glucosamine)], the 50% inhibitory concentration (IC50) stood at 1.94 µM.

In turn, {Cypate(2)}-GRDSPK-OH [Cypate(2)-Gly-Arg-Asp-Ser-Pro-Lys-OH] came in with an IC50 of 266 µM.

In turn, B12 came in with an IC50 of 1.74 µM.

Regarding B13, the IC50 worked out at 1.68 µM.

Turning to H-RGDSPK(Cypate)-NH2 [H-Arg-Gly-Asp-Ser-Pro-Lys(Cypate)-NH2], the 50% inhibitory concentration (IC50) amounted to 1 µM.

The molecule {Cypate′}-KRGD[dF][Ahx]-NH2 [Cypate-Lys-Arg-Gly-Asp-DPhe-EAhx-NH2] returned an IC50 of 3.02 µM.

These data come from patent US20090028788A1 (WASHINGTON UNIVERSITY IN ST LOUIS, published 2009).
